We go through 2 substances from PMC4917396.

Values joined by “and” are separate entries in the source; they are usually repeats but may differ in a detail not shown here. Identical values can stand only once.

For experiment [1], the target named is recombinant full-length murine amelogenin with an uncleavable N-terminal histidine tag (rp(H)M180) (mouse). Briefly: in situ AFM with volume analysis of adsorbates.
Experiment [2] has the same target. In words: in situ AFM coverage with Hill fit.
Experiment [3] has as its target recombinant full-length murine amelogenin without tag (rpM179) (mouse). Briefly: in situ AFM with volume analysis of adsorbates.
For experiment [4] the target is unchanged. In words: in situ AFM with volume analysis of adsorbates. The source holds these as a separate data set.
Experiment [5] shares this target. Briefly: in situ AFM coverage with Hill fit.
Experiment [6] has the same target. Briefly: in situ AFM with volume analysis of adsorbates. The source holds these as a separate data set.
Experiment [7] shares this target. Briefly: DLS.

For the substance “recombinant full-length murine amelogenin with an uncleavable N-terminal histidine tag (rp(H)M180) (natural protein)”, in experiment [1], the stoichiometry N is 25 monomers. For the same substance, in experiment [2], the ln Ka was determined as 76.2 Ka in M^-n.

As to “recombinant full-length murine amelogenin without tag (rpM179) (natural protein)”, the stoichiometry N in experiment [3] was 25 monomers; in experiment [4] it was 100 monomers and 200 monomers; in experiment [6], 150 monomers; in experiment [7] it was 200 monomers. The ln Ka in experiment [5] was found to be 3.35 Ka in M^-n.
